{"source": "paper PMC12631009", "about": "“Dominant‐Negative Effects of p53 R337 Variants in Li–Fraumeni Syndrome: Impact on Tetramer Formation and Transcriptional Activity” (Chembiochem, 2025)", "binders": {"B1": {"name": "WT p53TD peptide (residues 319-358 of human p53), nonbiotinylated (peptide)", "peptide": "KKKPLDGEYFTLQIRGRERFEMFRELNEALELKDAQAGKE", "notes": "p53 tetramerization domain, human, residues 319-358; source: synthetic peptide (solid-phase synthesis, reverse-phase HPLC purified)"}}, "target": "T1, Biotin-(Aca)2-p53TD (biotin-labeled WT p53 tetramerization domain peptide, residues 319-358) (human, biotin conjugated at the N-terminus with two residues of aminocaproic acid (Aca) as a linker)", "T1 construct": "p53 tetramerization domain, human, residues 319-358; Held on NeutrAvidin beads in the pull-down; also called Bio-(Aca)2-p53TD; biotin-labeled WT p53TD; source: synthetic peptide (solid-phase synthesis, reverse-phase HPLC purified); not shown: biotin, N-terminal, kept", "T1 peptide": "B1 peptide", "assay": "pull-down; avidin-biotin pull-down: Bio-(Aca)2-p53TD mixed with nonbiotinylated peptide at equimolar concentrations (10 μM) in 50 mM Na phosphate buffer (pH 7.5), 100 mM NaCl; boiled 5 min, cooled to promote hetero-oligomerization; bound to NeutrAvidin beads at 4 °C for 2 h; eluted with 80% acetic acid; peptides quantified by reverse-phase HPLC; result as ratio of peptide pulled down to biotinylated p53TD", "conditions": "both partners purified", "data": [{"binder": "B1", "values": [{"measurement": "ratio of peptide pulled down to biotinylated p53TD", "value": 0.81}]}]}
